Experimental data taken from the supplement of paper PMC9112550, “Optimization of the antimicrobial peptide Bac7 by deep mutational scanning” (BMC Biology, 2022).

Tested on: Escherichia coli TOP10
Assay: shrunken log2 fold change of peptide-encoding DNA abundance (4.5 h post-induction vs induction); higher = less antimicrobial activity (less host growth inhibition)
Details: time post-induction: 4.5 h; library: site-saturation at positions 5, 18, 19, 20
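Also: peptides expressed intracellularly from a pBAD plasmid library in pooled LB shake-flask culture, induced with 0.3% L-arabinose, DNA abundance read by NGS, three biological replicates, DESeq2 with apeglm shrinkage.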

| Sequence | shrunken log2 fold change |
| --- | --- |
| RRIRYRPPRLPRPRPRPGQNPRP | -0.01 |
| RRIRRRPPRLPRPRPRPTGKPRP | 0.901 |
| RRIRLRPPRLPRPRPRPMIEPRP | -0.00289 |
| RRIRYRPPRLPRPRPRPVSKPRP | -0.069 |
| RRIRLRPPRLPRPRPRPGCYPRP | -0.115 |
| RRIRPRPPRLPRPRPRPNECPRP | -0.217 |
| RRIRMRPPRLPRPRPRPDPAPRP | 1.13 |
| RRIRERPPRLPRPRPRPMRQPRP | 0.575 |
| RRIRDRPPRLPRPRPRPKHRPRP | 0.114 |
| RRIRLRPPRLPRPRPRPFHKPRP | -0.54 |
| RRIRSRPPRLPRPRPRPIQMPRP | -0.103 |
| RRIRNRPPRLPRPRPRPQMIPRP | -0.0608 |
| RRIRHRPPRLPRPRPRPPMAPRP | 0.197 |
| RRIRTRPPRLPRPRPRPNWSPRP | 0.0464 |
| RRIRYRPPRLPRPRPRPSDWPRP | -0.152 |
| RRIRTRPPRLPRPRPRPHCLPRP | -0.305 |
| RRIRQRPPRLPRPRPRPNDEPRP | 0.0763 |
| RRIRTRPPRLPRPRPRPPWAPRP | 0.613 |
| RRIRIRPPRLPRPRPRPFLMPRP | -0.314 |
| RRIRVRPPRLPRPRPRPPMQPRP | 0.152 |

| Sequence | shrunken log2 fold change |
| --- | --- |
| RRIRVRPPRLPRPRPRPPLQPRP | 0.272 |
| RRIRLRPPRLPRPRPRPIKVPRP | -0.135 |
| RRIRFRPPRLPRPRPRPEQDPRP | 1.57 |
| RRIRSRPPRLPRPRPRPGVYPRP | -0.0749 |
| RRIRARPPRLPRPRPRPWTFPRP | -0.0754 |
| RRIRHRPPRLPRPRPRPESHPRP | -0.0331 |
| RRIRMRPPRLPRPRPRPKFGPRP | -0.0062 |
| RRIRARPPRLPRPRPRPKEKPRP | 0.0797 |
| RRIRTRPPRLPRPRPRPGMFPRP | -0.397 |
| RRIRQRPPRLPRPRPRPCAPPRP | 0.226 |
| RRIRVRPPRLPRPRPRPVDWPRP | 0.403 |
| RRIRMRPPRLPRPRPRPDLFPRP | 0.803 |
| RRIRNRPPRLPRPRPRPFWEPRP | -0.372 |
| RRIRTRPPRLPRPRPRPITCPRP | -0.223 |
| RRIRNRPPRLPRPRPRPQQCPRP | -0.0851 |
| RRIRSRPPRLPRPRPRPLNDPRP | -0.182 |
| RRIRMRPPRLPRPRPRPRTVPRP | 0.472 |
| RRIRDRPPRLPRPRPRPLLHPRP | 0.114 |
| RRIRVRPPRLPRPRPRPEQMPRP | 0.212 |
| RRIRGRPPRLPRPRPRPHFTPRP | 0.233 |

| Sequence | shrunken log2 fold change |
| --- | --- |
| RRIRCRPPRLPRPRPRPTQPPRP | 0.222 |
| RRIRHRPPRLPRPRPRPRNRPRP | 0.672 |
| RRIRWRPPRLPRPRPRPYYIPRP | -0.459 |
| RRIRLRPPRLPRPRPRPDVSPRP | 0.0432 |
| RRIRIRPPRLPRPRPRPQINPRP | -0.776 |
| RRIRLRPPRLPRPRPRPAYTPRP | -0.203 |
| RRIRWRPPRLPRPRPRPNEYPRP | -0.39 |
| RRIRQRPPRLPRPRPRPKDDPRP | -0.0913 |
| RRIRARPPRLPRPRPRPSNEPRP | 0.167 |
| RRIRKRPPRLPRPRPRPPAEPRP | 1.07 |
| RRIRCRPPRLPRPRPRPGCMPRP | 0.00195 |
| RRIRIRPPRLPRPRPRPVDPPRP | 0.106 |
| RRIRSRPPRLPRPRPRPEVYPRP | 0.104 |
| RRIRGRPPRLPRPRPRPGKVPRP | 0.598 |
| RRIRRRPPRLPRPRPRPVADPRP | 0.228 |
| RRIRERPPRLPRPRPRPMYGPRP | -0.739 |
| RRIRLRPPRLPRPRPRPLAGPRP | 0.0705 |
| RRIRERPPRLPRPRPRPHEEPRP | 0.13 |
| RRIRRRPPRLPRPRPRPDKHPRP | 0.157 |
| RRIRHRPPRLPRPRPRPLTHPRP | -1.14 |
